Reference: article PMC10455477, “The Roles of Coenzyme A Binding Pocket Residues in Short and Medium Chain Acyl-CoA Synthetases” (Life, 2023)
Where a chain is given by its changes, count along the chain named. In names and notes the source's numbering stands.

B1: MacsMa (Methanosarcina acetivorans C2A) (protein)
chain: MTSLLSQFVSKTDFESYEDFQENFKILVPENFNFAYDVVDVYARDSPEKLAMIWCDDYGNEKIFTFKDLKYYSDKAANFFVKHGIGKGDYVMLTLKSRYDFWYCMLGLHKLGAIAVPATHMLKTRDIVYRIEKAGLKMIVCIAEDDVPEQVDEAHAECGDIPLKKAKVGGDVLEGWIDFRKELEESSPIFERPTGEVSTKNEDICLVYFSSGTAGFPKMVEHDNTYPLGHILTAKYWQNVEDDGLHYTVADSGWGKCVWGKLYGQWIAGCAVFVYDYDRFEAKNMLEKASKYGVTTFCAPPTIYRFLIKEDLSHYNFSTLKYAVVAGEPLNPEVFNRFLEFTGIKLMEGFGQTETVVTIATFPWMEPKPGSIGKPTPGYKIELMDRDGRLCEVGEEGEIVINTMEGKPVGLFVHYGKDPERTEETWHDGYYHTGDMAWMDEDGYLWFVGRADDIIKTSGYKVGPFEVESALIQHPAVLECAITGVPDPVRGQVIKATIVLTKDYTPSDSLKNELQDHVKNVTAPYKYPRIIEFVPELPKTISGKIRRVEIRDKDQSQ
B2: MacsMa (Methanosarcina acetivorans C2A; K522R) (protein)
chain: B1 chain with K519R
notes: recombinant, E. coli Rosetta Blue (DE3) placI; His-Trap purified
B3: MacsMa (Methanosarcina acetivorans C2A; K464A) (protein)
chain: B1 chain with K461A
notes: as for B2
B4: MacsMa (Methanosarcina acetivorans C2A; K464R) (protein)
chain: B1 chain with K461R
notes: as for B2
B5: MacsMa (Methanosarcina acetivorans C2A; G462A) (protein)
chain: B1 chain with G459A
notes: as for B2

What was measured:
MacsMa = target: T1, MacsMa (Methanosarcina acetivorans, UniProt Q8TLW1); experiment: inhibition of propionyl-adenylate synthetase activity; type: biochemical; conditions: read-out: % inhibition at 15 mM
T1 construct: gene MA_2912; recombinant, E. coli Rosetta Blue (DE3) placI; His-Trap purified

AcsMt = system: T2, AcsMt; experiment: hydroxamate assay, A540; type: biochemical, Methanothermobacter thermautotrophicus; conditions: acetate and MgATP saturating; 65 °C; apparent Km
T2 construct: gene acs; recombinant, E. coli Rosetta Blue (DE3) placI; His-Trap purified
From the text: hydroxamate assay, A540 on AcsMt

purified protein [1] = substrate: CC(C)(COP(=O)(O)OP(=O)(O)OC[C@H]1O[C@@H](n2cnc3c(N)ncnc32)[C@H](O)[C@@H]1OP(=O)(O)O)[C@@H](O)C(=O)NCCC(=O)NCCS; experiment: purified protein; conditions: 2-methylbutyrate and ATP saturating, pH 7.5, 55 °C, apparent Km
purified protein [2] = substrate: CCC(=O)O; experiment: purified protein; conditions: no CoA, ATP saturating, 55 °C, apparent Km
purified protein [3] = substrate: Nc1ncnc2c1ncn2[C@@H]1O[C@H](COP(=O)(O)OP(=O)(O)OP(=O)(O)O)[C@@H](O)[C@H]1O; experiment: purified protein; conditions: 2-methylbutyrate and CoA saturating, pH 7.5, 55 °C, apparent Km
[4] = substrate: CC(C)(COP(=O)(O)OP(=O)(O)OC[C@H]1O[C@@H](n2cnc3c(N)ncnc32)[C@H](O)[C@@H]1OP(=O)(O)O)[C@@H](O)C(=O)NCCC(=O)NCCS; experiment: 2-methylbutyryl-CoA synthetase activity; type: biochemical, Methanosarcina acetivorans; conditions: 2-methylbutyrate and ATP saturating, pH 7.5, 55 °C, apparent Km
From the text: 2-methylbutyryl-CoA synthetase activity on MacsMa

Molecule	Km [4]	kcat [4]	other results
CC(C)(COP(=O)(O)OP(=O)(O)OC[C@H]1O[C@@H](n2cnc3c(N)ncnc32)[C@H](O)[C@@H]1OP(=O)(O)O)[C@@H](O)C(=O)NCCC(=O)NCCS [CoA]	–	–	inhibition at 15000 µM (MacsMa): ~40%
CC(C)(COP(=O)(O)OP(=O)(O)OC[C@H]1O[C@@H](n2cnc3c(N)ncnc32)[C@H](O)[C@@H]1O)[C@@H](O)C(=O)NCCC(=O)NCCS [3′-dephospho CoA]	–	–	Km (AcsMt): 2160 ± 500 µM
B1	–	–	Km (purified protein [1]): 4090 ± 450 µM; kcat (purified protein [1]): 2.15 ± 0.1 s⁻¹; Km (purified protein [2]): 29100 ± 300 µM; kcat (purified protein [2]): 10.67 ± 1.34 s⁻¹; Km (purified protein [3]): 4210 ± 110 µM
B2	7180 ± 290 µM	1.07 ± 0.02 s⁻¹	–
B3	2190 ± 180 µM	0.55 ± 0.03 s⁻¹	–
B4	1380 ± 140 µM	0.46 ± 0.1 s⁻¹	–
B5	2090 ± 60 µM	0.41 ± 0.01 s⁻¹	–
